Data from patent publication US5681819.
One block for each molecule: values may come before it.

Key:
[1] = biological target: receptor on the rat intestine surface that binds the C-tail of BAL (CT-receptors)
[2] = biological target: receptor on the rat intestine surface that binds the C-tail of BAL (CT-receptors); remark: listed apart in the source
[3] = biological target: receptor on the mouse small intestine surface that binds the C-tail of BAL (CT receptor); assay: 125I-labelled protein retained in ligated mouse small intestine segments after washing; mean of 3 experiments
[4] = biological target: receptor on the rat intestine surface that binds the C-tail of BAL (CT-receptors); remark: listed apart in the source

Molecule: rat endogenous intestinal BAL (from UniProt P07882) (enzyme)
cholesterol uptake of rat intestine after removal of bound BAL with EGTA [1]: 16 % of control

B2: isolated C-tail of human milk BAL (protein)
chain: ALPTVTDQEATPVPPTGDSEATPVPPTGDSETAPVPPTGDSGAPPVPPTGDSGAPPVPPTGDSGAPPVPPTGDSGAPPVPPTGDSGAPPVPPTGDSGAPPVPPTGDSGAPPVPPTGDAGPPPVPPTGDSGAPPVPPTGDSGAPPVTPTGDSETAPVPPTGDSGAPPVPPTGDSEAAPVPPTDDSK
modifications: about 8 to 10 O-linked oligosaccharides per C-tail molecule, most if not all on threonine (fucose, galactose, galactosamine, glucosamine)
cholesterol uptake of rat intestine segments from 3H cholesterol oleate [4]: 10 % of control

Results, then the molecule that gave them:

Cholesterol Uptake [2]: 7.32 nmol/g/h | Bound [3]: 33 ng/cm
B1: recombinant truncated form of bile salt-activated lipase (T-BAL, residues 1-538 lacking the carboxy terminal end) (enzyme)
chain: AKLGAVYTEGGFVEGVNKKLGLLGDSVDIFKGIPFAAPTKALENPQPHPGWQGTLKAKNFKKRCLQATITQDSTYGDEDCLYLNIWVPQGRKQVSRDLPVMIWIYGGAFLMGSGHGANFLNNYLYDGEEIATRGNVIVVTFNYRVGPLGFLSTGDANLPGNYGLRDQHMAIAWVKRNIAAFGGDPNNITLFGESAGGASVSLQTLSPYNKGLIRRAISQSGVALSPWVIQKNPLFWAKKVAEKVGCPVGDAARMAQCLKVTDPRALTLAYKVPLAGLEYPMLHYVGFVPVIDGDFIPADPINLYANAADIDYIAGTNNMDGHIFASIDMPAINKGNKKVTEEDFYKLVSEFTITKGLRGAKTTFDVYTESWAQDPSQENKKKTVVDFETDVLFLVPTEIALAQHRANAKSAKTYAYLFSHPSRMPVYPKWVGADHADDIQYVFGKPFATPTGYRPQDRTVSKAMIAYWTNFAKTGDPNMGDSAVPTHWEPYTTENSGYLEITKKMGSSSMKRSLRTNFLRYWTLTYLALPTVTDQEAT
modifications: not glycosylated (expressed in E. coli); 125I-labelled in the mouse intestine binding experiment

Cholesterol Uptake [2]: 14.4 nmol/g/h | Bound [3]: 384 ng/cm
B3: native human milk bile salt-activated lipase (enzyme)
chain: AKLGAVYTEGGFVEGVNKKLGLLGDSVDIFKGIPFAAPTKALENPQPHPGWQGTLKAKNFKKRCLQATITQDSTYGDEDCLYLNIWVPQGRKQVSRDLPVMIWIYGGAFLMGSGHGANFLNNYLYDGEEIATRGNVIVVTFNYRVGPLGFLSTGDANLPGNYGLRDQHMAIAWVKRNIAAFGGDPNNITLFGESAGGASVSLQTLSPYNKGLIRRAISQSGVALSPWVIQKNPLFWAKKVAEKVGCPVGDAARMAQCLKVTDPRALTLAYKVPLAGLEYPMLHYVGFVPVIDGDFIPADPINLYANAADIDYIAGTNNMDGHIFASIDMPAINKGNKKVTEEDFYKLVSEFTITKGLRGAKTTFDVYTESWAQDPSQENKKKTVVDFETDVLFLVPTEIALAQHRANAKSAKTYAYLFSHPSRMPVYPKWVGADHADDIQYVFGKPFATPTGYRPQDRTVSKAMIAYWTNFAKTGDPNMGDSAVPTHWEPYTTENSGYLEITKKMGSSSMKRSLRTNFLRYWTLTYLALPTVTDQEATPVPPTGDSEATPVPPTGDSETAPVPPTGDSGAPPVPPTGDSGAPPVPPTGDSGAPPVPPTGDSGAPPVPPTGDSGAPPVPPTGDSGAPPVPPTGDSGAPPVPPTGDAGPPPVPPTGDSGAPPVPPTGDSGAPPVTPTGDSETAPVPPTGDSGAPPVPPTGDSEAAPVPPTDDSKEAQMPAVIRF
modifications: O-linked oligosaccharides in the C-tail, primarily on threonine; 125I-labelled in the mouse intestine binding experiment
